Results from patent publication US10844127.

Columns and labels:
HER3 ECD R426A (human) = HER3 ECD R426A (human) (UniProt P21860); experiment: FACS, HER3 ECD alanine mutants on cells
HER3 ECD F409A (human) = HER3 ECD F409A (human) (UniProt P21860); experiment: FACS, HER3 ECD alanine mutants on cells
Sequence of HER3 ECD F409A (human) (P21860 20-643 F409A): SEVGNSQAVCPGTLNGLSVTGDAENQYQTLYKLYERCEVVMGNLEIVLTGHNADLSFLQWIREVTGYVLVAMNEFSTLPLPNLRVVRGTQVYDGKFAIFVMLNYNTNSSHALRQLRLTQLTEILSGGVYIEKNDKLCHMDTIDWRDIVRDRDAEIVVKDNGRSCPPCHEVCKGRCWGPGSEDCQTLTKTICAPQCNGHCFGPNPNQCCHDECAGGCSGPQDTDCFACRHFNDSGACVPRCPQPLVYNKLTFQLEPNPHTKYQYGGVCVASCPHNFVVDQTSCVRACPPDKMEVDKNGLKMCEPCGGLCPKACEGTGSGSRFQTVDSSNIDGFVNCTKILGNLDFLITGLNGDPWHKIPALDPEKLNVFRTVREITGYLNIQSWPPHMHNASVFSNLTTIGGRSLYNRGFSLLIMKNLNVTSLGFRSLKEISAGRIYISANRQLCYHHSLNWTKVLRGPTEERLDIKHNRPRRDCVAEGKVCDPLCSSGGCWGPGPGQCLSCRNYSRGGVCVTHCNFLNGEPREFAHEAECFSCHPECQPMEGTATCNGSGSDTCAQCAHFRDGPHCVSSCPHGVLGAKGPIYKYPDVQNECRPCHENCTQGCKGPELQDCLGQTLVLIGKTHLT

Sequence of HER3 ECD R426A (human) (P21860 20-643 R426A): as the sequence (P21860 20-643 F409A) above, with A390F, R407A counted along it

Substance: control mAb 66223 (antibody)
- Control mAb binding % of wt binding (% of wt binding) (HER3 ECD R426A (human)): 93.1
- Control mAb binding % of wt binding (% of wt binding) (HER3 ECD F409A (human)): 79.6
